Patent US6843989 (Seagen, dated 2005)

Legend:
[1] = target: T1, CD40 expressed on the surface of B cells (human, UniProt P25942 21-277); experiment: flow cytometry; soluble CD40L titrated on Ramos B cells
[2] = target: T1, CD40 expressed on the surface of B cells; experiment: cell-based or functional assay

T1 sequence (P25942 21-277): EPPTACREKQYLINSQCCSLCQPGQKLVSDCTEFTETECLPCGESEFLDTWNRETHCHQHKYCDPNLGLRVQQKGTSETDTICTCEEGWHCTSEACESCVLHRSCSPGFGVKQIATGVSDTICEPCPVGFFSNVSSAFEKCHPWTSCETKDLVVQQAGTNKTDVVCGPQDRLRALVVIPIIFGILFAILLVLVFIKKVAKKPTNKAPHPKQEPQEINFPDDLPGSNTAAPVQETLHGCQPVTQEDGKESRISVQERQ

“recombinant human soluble CD40 ligand (CD154-muCD8), FITC-labeled (from UniProt P29965 47-261; P27548 47-260)” showed a saturation concentration [1] of 10 µg/mL.

B1: anti-CD40 mAb G28-5 (antibody, V domains shown)
VH: DIQLQQSGPGLVKPSQSLSLTCSVTGYSITTNYNWNWIRQFPGNKLEWMGYIRYDGTSEYTPSLKNRVSITRDTSMNQFFLRLTSVTPEDTATYYCARLDYWGQGTSVTVSS
VL: DAVMTQNPLSLPVSLGDEASISCRSSQSLENSNGNTFLNWFFQKPGQSPQLLIYRVSNRFSGVPDRFSGSGSGTDFTLKISRVEAEDLGVYFCLQVTHVPYTFGGGTTLEIK
B1 was tested, and the “B cell proliferation (3H-thymidine incorporation) with CD40L+ T cell titration and 30 ng/ml mAb, over the level with mAb alone” value [2] was 1.3 fold and the “activation (proliferation) of primary human peripheral blood B cells with CD40L+ stimulator cells at 4:1 (B:T), against mAb alone” value [2] was 2 fold.

B2: monoclonal antibody S2C6 (antibody, V domains shown)
VH: EVQLQQSGPDLVKPGASVKISCKASGYSFTGYYIHWVKQSHGKSLEWIGRVIPNNGGTSYNQKFKGKAILTVDKSSSTAYMELRSLTSEDSAVYYCAREGIYWWGHGTTLTVSS
VL: DVVVTQTPLSLPVSLGAQASISCRSSQSLVHSNGNTFLHWYLQKPGQSPKLLIYTVSNRFSGVPDRFSGSGSGTDFTLKISRVEAEDLGVYFCSQTTHVPWTFGGGTKLEIQ
For B2, the “B cell proliferation (3H-thymidine incorporation) with CD40L+ T cell titration and 30 ng/ml mAb, over mAb-only stimulation” value [2] was 3 fold and the “B cell proliferation of primary human peripheral blood B cells with CD40L+ stimulator cells at 4:1 (B:T), against mAb alone” value [2] was 16.2 fold.
